Laboratory results from patent US5998188.

B1: MKP-1, full length, expressed from CMV-MKP-1 in PC12 cells (enzyme)
chain: MVMEVGILDAGGLRALLREGAAQCLLLDCRSFFAFNAGHIAGSVNVRFSTIVRRRAKGAMGLEHIVPNAELRGRLLAGAYHAVVLLDERSASLDGAKRDGTLALAAGALCREARSTQVFFLQGGYEAFSASCPELCSKQSTPTGLSLPLSTSVPDSAESGCSSCSTPLYDQGGPVEILSFLYLGSAYHASRKDMLDALGITALINVSANCPNHFEGHYQYKSIPVEDNHKADISSWFNEAIDFIDSIKDAGGRVFVHCQAGISRSATICLAYLMRTNRVKLDEAFEFVKQRRSIISPNFSFMGQLLQFESQVLAPHCSAEAGSPAMAVLDRGTSTTTVFNFPVSIPVHPTNSALNYLKSPITTSPSC

Target: MAP kinase (ERKs) of PC12 cells

| Molecule | Gal4-Elk-1 dependent luciferase activity induced by Raf BxB in PC12 cells (% of maximal levels) | Gal4-Elk-1 dependent luciferase activity induced by Raf BxB in PC12 cells (% of maximally stimulated levels) |
| --- | --- | --- |
| MKP-2 (rat mitogen-activated protein kinase phosphatase-2), full length, expressed from CMV-MKP-2 in PC12 cells | 90 |  |
| B1 |  | > 60 |
